Numbering of substitutions follows the chain as printed. Names and notes keep the numbering of the source.
T1: histone lysine demethylase KDM2B (human (endogenous in LCLs), UniProt Q8NHM5 1-1336)
T1 construct: KDM2B, endogenous in lymphoblastoid cell lines, immunoprecipitated with anti-KDM2B (09-864; Millipore); also called FBXL10; JHDM1B; source: endogenous, LCL lysate
T1 sequence (looked up): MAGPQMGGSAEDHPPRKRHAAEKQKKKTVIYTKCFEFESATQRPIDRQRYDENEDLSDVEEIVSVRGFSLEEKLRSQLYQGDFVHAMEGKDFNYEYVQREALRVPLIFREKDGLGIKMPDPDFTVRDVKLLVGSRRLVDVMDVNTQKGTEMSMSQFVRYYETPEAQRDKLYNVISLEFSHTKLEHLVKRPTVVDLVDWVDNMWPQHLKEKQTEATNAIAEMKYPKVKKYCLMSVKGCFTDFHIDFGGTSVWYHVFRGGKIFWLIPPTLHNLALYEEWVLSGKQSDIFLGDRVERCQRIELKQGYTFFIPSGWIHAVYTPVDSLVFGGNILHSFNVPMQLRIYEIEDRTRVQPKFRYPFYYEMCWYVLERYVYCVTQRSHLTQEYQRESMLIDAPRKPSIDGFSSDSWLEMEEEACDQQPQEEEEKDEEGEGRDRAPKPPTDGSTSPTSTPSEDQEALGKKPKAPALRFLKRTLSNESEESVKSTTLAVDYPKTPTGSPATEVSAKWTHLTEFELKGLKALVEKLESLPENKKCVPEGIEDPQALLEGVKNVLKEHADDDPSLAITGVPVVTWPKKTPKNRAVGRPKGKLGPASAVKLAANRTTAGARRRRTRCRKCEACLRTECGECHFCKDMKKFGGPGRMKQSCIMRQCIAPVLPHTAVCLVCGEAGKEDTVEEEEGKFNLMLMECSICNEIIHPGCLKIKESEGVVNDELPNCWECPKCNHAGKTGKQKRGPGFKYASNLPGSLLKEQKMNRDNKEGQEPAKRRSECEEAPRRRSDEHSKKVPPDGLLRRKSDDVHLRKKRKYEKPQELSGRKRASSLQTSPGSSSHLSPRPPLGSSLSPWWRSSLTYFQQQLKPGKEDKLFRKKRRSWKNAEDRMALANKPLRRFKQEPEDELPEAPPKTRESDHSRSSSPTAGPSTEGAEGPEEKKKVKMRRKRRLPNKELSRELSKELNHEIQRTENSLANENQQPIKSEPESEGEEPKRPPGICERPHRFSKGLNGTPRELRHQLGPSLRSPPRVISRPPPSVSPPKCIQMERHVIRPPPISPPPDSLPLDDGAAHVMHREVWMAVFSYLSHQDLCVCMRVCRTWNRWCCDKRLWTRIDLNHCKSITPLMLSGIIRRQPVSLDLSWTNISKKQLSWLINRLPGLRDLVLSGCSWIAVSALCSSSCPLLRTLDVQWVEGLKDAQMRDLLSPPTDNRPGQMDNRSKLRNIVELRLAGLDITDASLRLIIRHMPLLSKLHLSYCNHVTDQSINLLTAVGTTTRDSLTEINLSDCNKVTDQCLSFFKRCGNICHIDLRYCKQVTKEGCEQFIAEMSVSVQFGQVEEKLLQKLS

T2: BMI1 (human (endogenous in LCLs), UniProt P35226 1-326)
T2 construct: BMI1, endogenous in lymphoblastoid cell lines, immunoprecipitated with anti-BMI1 (A301-694A; Bethyl); also called PRC1 core component BMI1; source: endogenous, LCL lysate
T2 sequence (looked up): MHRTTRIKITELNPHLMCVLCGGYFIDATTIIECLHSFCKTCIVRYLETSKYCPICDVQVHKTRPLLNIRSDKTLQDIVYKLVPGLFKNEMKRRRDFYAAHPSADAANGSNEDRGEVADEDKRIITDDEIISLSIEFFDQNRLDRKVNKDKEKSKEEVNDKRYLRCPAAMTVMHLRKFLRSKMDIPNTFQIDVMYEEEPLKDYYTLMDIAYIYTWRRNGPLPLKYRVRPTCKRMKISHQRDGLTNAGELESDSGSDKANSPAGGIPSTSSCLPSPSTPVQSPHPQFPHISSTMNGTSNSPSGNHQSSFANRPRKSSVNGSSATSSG

B1: EBNA3C HDmut (209TFGC212 mutated to 209AAAA212) (natural protein)
chain: MESFEGQGDSRQSPDNERGDNVQTTGEHDQDPGPGPPSSGASERLVPEESYSRDQQPWGQSRGDENRGWMQRIRRRRRRRAALSGHLLDTEDNVPPWLPPHDITPYTARNIRDAACRAVKQSHLQALSNLILDSGLDTQHILCFVMAARQRLQDIRRGPLVAEGGVGWRHWLLTSPSQSWPMGYRTATLRTLTPVPNRVGADSIMLTAAAAAQNAARTLNTFSATVWTPPHAGPREQERYAREAEVRFLRGKWQRRYRRIYDLIELCGSLHHIWQNLLQTEENLLDFVRFMGVMSSCNNPAVNYWFHKTIGNFKPYYPWNAPPNENPYHARRGIKEHVIQNAFRKAQIQGLSMLATGGEPRGDATSETSSDEDTGRQGSDVELESSDDELPYIDPNMEPVQQRPVMFVSRVPAKKPRKLPWPTPKTHPVKRTNVKTSDRSDKAEAQSTPERPGPSEQSSVTVEPAHPTPVEMPMVILHQPPPVPKPVPVKPTPPPSRRRRGACVVYDDDVIEVIDVETTEDSSSVSQPNKPHRKHQDGFQRSGRRQKRAAPPTVSPSDTGPPAVGPPAAGPPAAGPPAAGPPAAGPPAAGPPAAGPRILAPLSAGPPAAGPHIVTPPSARPRIMAPPVVRMFMRERQLPQSTGRKPQCFWEMRAGREITQMQQEPSSHLQSATQPTTPRPSWAPSVCALSVMDAGKAQPIESSHLSSMSPTQPISHEEQPRYEDPDAPLDLSLHPDVAAQPAPQAPYQGYQEPPAPQAPYQGYQEPPPPQAPYQGYQEPPAHGLQSSSYPGYAGPWTPRSQHPCYRHPWAPWSQDPVHGHTQGPWDPRAPHLPPQWDGSAGHGQDQVSQFPHLQSETGPPRLQLSLVPLVSSSAPSWSSPQPRAPIRPIPTRFPPPPMPLQDSMAVGCDSSGTACPSMPFASDYSQGAFTPLDINATTPKRPRVEESSHGPARCSQATAEAQEILSDNSEISVFPKDAKQTDYDASTESELD
notes: EBNA3C of Epstein-Barr virus, strain B95.8, with the TFGC (homology domain) motif mutated to alanines; also called homology domain mutant
B2: EBNA3C W227S (natural protein)
chain: B1 chain with A209T, A210F, A211G, A212C, W227S
notes: EBNA3C of Epstein-Barr virus, strain B95.8, with W227S in the 226VWTP229 motif

Assays:
[1] = molecular target: T1, histone lysine demethylase KDM2B; assay: co-IP; LCL extracts (10^7 cells lysed in IP buffer, precleared); the cellular protein (RBPJ, BMI1, SUZ12 or KDM2B) immunoprecipitated from 200 ug lysate overnight at 4°C, protein G-Sepharose, four washes; Western blot for EBNA3C; isotype IgG control; mutants quantified by ImageJ as percent relative IP compared to EBNA3C WT; settings: partners not purified
[2] = molecular target: T2, BMI1; assay: as above; settings: partners not purified

Row | Binder | percent relative IP compared to EBNA3C WT [1] | percent relative IP compared to EBNA3C WT [2]
1 | B1 | 8% | 60%
2 | B2 | 80% | 

Reference: article PMC6189496, “Epstein-Barr Virus Nuclear Antigen 3C Inhibits Expression of COBLL1 and the ADAM28-ADAMDEC1 Locus via Interaction with the Histone Lysine Demethylase KDM2B” (Journal of Virology, 2018)
